Molecular target: OsPHR2-6XHIS (Oryza sativa, UniProt Q6Z156 1-426)
Assay: EMSA; 0.7 ug protein, 50 ng probe; 15 mM HEPES pH 8.0, 30 mM KCl, 1 mM MgCl2, 0.2 mM EDTA, 0.02 mM DTT, 0.6% glycerol, 1 ug poly(dI-dC) in 20 ul, 20 °C 30 min (1 h with 15 mM NaH2PO4 for inhibition assay); gel 0.5X TBE at 4 °C
Details: protein: recombinant; tags: 6xHis (pET28a); chain copies: 2; label: DIG 3' end; blunt

OsPHR2-6XHIS, sequence (Q6Z156 whole entry): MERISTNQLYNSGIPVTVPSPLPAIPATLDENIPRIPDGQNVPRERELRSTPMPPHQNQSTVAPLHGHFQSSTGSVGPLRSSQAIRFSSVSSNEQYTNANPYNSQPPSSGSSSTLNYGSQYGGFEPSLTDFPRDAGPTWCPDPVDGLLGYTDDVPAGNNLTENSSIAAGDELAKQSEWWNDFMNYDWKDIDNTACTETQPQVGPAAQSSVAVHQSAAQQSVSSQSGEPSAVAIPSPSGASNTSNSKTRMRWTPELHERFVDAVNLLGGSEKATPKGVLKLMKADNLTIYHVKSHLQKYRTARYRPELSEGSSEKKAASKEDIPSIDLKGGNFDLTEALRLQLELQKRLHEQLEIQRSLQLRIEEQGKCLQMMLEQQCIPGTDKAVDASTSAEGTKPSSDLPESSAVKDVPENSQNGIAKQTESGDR

B1: OsSPX2 promoter P1BS probe (dsDNA)
DNA 1: TATCCCCGTCACGAATATTCCTCTTCCTCC
DNA 2: GGAGGAAGAGGAATATTCGTGACGGGGATA
B1: binds.

— article PMC8213676, “OsJAZ11 regulates phosphate starvation responses in rice”
